The series has as its system Escherichia coli TOP10. Description: shrunken log2 fold change of peptide-encoding DNA abundance (4.5 h post-induction vs induction); higher = less antimicrobial activity (less host growth inhibition). The note with it: time post-induction: 4.5 h; library: site-saturation at positions 5, 18, 19, 20.
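Further: peptides expressed intracellularly from a pBAD plasmid library in pooled LB shake-flask culture, induced with 0.3% L-arabinose, DNA abundance read by NGS, three biological replicates, DESeq2 with apeglm shrinkage.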

Consider RRIRWRPPRLPRPRPRPDLWPRP, for which the “shrunken log2 fold change” value came to 0.234.

RRIRHRPPRLPRPRPRPTQMPRP: the “shrunken log2 fold change” value amounted to 0.222.

In the case of RRIRMRPPRLPRPRPRPVDKPRP, the “shrunken log2 fold change” value was 0.0379.

As for RRIRFRPPRLPRPRPRPDVNPRP, the “shrunken log2 fold change” value was 0.00585.

For the sequence RRIRARPPRLPRPRPRPFMGPRP, the “shrunken log2 fold change” value was -0.255.

For RRIRGRPPRLPRPRPRPHPTPRP, the “shrunken log2 fold change” value was determined as 0.973.

In the case of RRIRFRPPRLPRPRPRPVDFPRP, the “shrunken log2 fold change” value is -0.452.

In the case of RRIRCRPPRLPRPRPRPADGPRP, the “shrunken log2 fold change” value was -0.129.

For the sequence RRIRMRPPRLPRPRPRPRIYPRP, the “shrunken log2 fold change” value was -0.0363.

In the case of RRIRGRPPRLPRPRPRPMLRPRP, the “shrunken log2 fold change” value was determined as 0.117.

Consider RRIRPRPPRLPRPRPRPALNPRP, for which the “shrunken log2 fold change” value was determined as 0.0983.

Turning to RRIRQRPPRLPRPRPRPLHVPRP, the “shrunken log2 fold change” value is -0.324.

For RRIRMRPPRLPRPRPRPVKRPRP, the “shrunken log2 fold change” value is -0.0121.

Regarding RRIRGRPPRLPRPRPRPRNLPRP, the “shrunken log2 fold change” value was -0.0805.

As to RRIRQRPPRLPRPRPRPGRTPRP, the “shrunken log2 fold change” value was -0.433.

For RRIRNRPPRLPRPRPRPWWFPRP, the “shrunken log2 fold change” value was -0.0934.

With RRIRQRPPRLPRPRPRPWSGPRP, the “shrunken log2 fold change” value came to 0.082.

As for RRIRFRPPRLPRPRPRPAHFPRP, the “shrunken log2 fold change” value was 0.0115.

In the case of RRIRPRPPRLPRPRPRPILMPRP, the “shrunken log2 fold change” value was -0.112.

RRIRPRPPRLPRPRPRPDTLPRP: the “shrunken log2 fold change” value is -0.284.

For RRIRLRPPRLPRPRPRPPIPPRP, the “shrunken log2 fold change” value was determined as 0.316.

For the sequence RRIRDRPPRLPRPRPRPTQPPRP, the “shrunken log2 fold change” value came to 0.0164.

As to RRIRPRPPRLPRPRPRPCPQPRP, the “shrunken log2 fold change” value was -0.0291.

Take RRIRTRPPRLPRPRPRPRIHPRP: the “shrunken log2 fold change” value turned out to be 0.0773.

On to RRIRVRPPRLPRPRPRPSPTPRP, for which the “shrunken log2 fold change” value was found to be 0.0219.

In the case of RRIRYRPPRLPRPRPRPRDFPRP, the “shrunken log2 fold change” value was -0.161.

On to RRIRRRPPRLPRPRPRPNDNPRP, for which the “shrunken log2 fold change” value is -0.301.

On to RRIRRRPPRLPRPRPRPITAPRP, for which the “shrunken log2 fold change” value stood at 0.148.

For RRIRRRPPRLPRPRPRPSMQPRP, the “shrunken log2 fold change” value is 0.404.

Take RRIRNRPPRLPRPRPRPNQAPRP: the “shrunken log2 fold change” value is -0.0207.

For RRIRWRPPRLPRPRPRPYDWPRP, the “shrunken log2 fold change” value is -0.0803.

Regarding RRIRERPPRLPRPRPRPGYCPRP, the “shrunken log2 fold change” value was -0.432.

As for RRIRERPPRLPRPRPRPHGLPRP, the “shrunken log2 fold change” value was -0.161.

Turning to RRIRARPPRLPRPRPRPFFGPRP, the “shrunken log2 fold change” value came to 0.349.

Consider RRIRKRPPRLPRPRPRPSGEPRP, for which the “shrunken log2 fold change” value amounted to 0.0144.

Consider RRIRYRPPRLPRPRPRPNVAPRP, for which the “shrunken log2 fold change” value is -0.0308.

With RRIRWRPPRLPRPRPRPAVAPRP, the “shrunken log2 fold change” value was 0.544.

With RRIRVRPPRLPRPRPRPAQTPRP, the “shrunken log2 fold change” value is 0.442.

In the case of RRIRFRPPRLPRPRPRPKWPPRP, the “shrunken log2 fold change” value is 0.27.

As for RRIRARPPRLPRPRPRPMFGPRP, the “shrunken log2 fold change” value worked out at 0.215.

For the sequence RRIRGRPPRLPRPRPRPEIPPRP, the “shrunken log2 fold change” value was determined as 0.196.

As to RRIRWRPPRLPRPRPRPQKCPRP, the “shrunken log2 fold change” value was -0.382.

In the case of RRIRGRPPRLPRPRPRPDMDPRP, the “shrunken log2 fold change” value turned out to be 0.00342.

For the sequence RRIRGRPPRLPRPRPRPSLWPRP, the “shrunken log2 fold change” value is 0.611.

With RRIRDRPPRLPRPRPRPTDFPRP, the “shrunken log2 fold change” value is -0.0352.

As to RRIRNRPPRLPRPRPRPAFPPRP, the “shrunken log2 fold change” value was -0.138.

Turning to RRIRDRPPRLPRPRPRPDTCPRP, the “shrunken log2 fold change” value worked out at 0.00173.

In the case of RRIRMRPPRLPRPRPRPEQPPRP, the “shrunken log2 fold change” value came to 0.395.

For RRIRHRPPRLPRPRPRPWGDPRP, the “shrunken log2 fold change” value was 0.0821.

For RRIRNRPPRLPRPRPRPLDCPRP, the “shrunken log2 fold change” value was -0.00858.

In the case of RRIRFRPPRLPRPRPRPASVPRP, the “shrunken log2 fold change” value was 0.344.

Turning to RRIRSRPPRLPRPRPRPNQLPRP, the “shrunken log2 fold change” value was -0.218.

Regarding RRIRARPPRLPRPRPRPWQNPRP, the “shrunken log2 fold change” value was 0.05.

With RRIRHRPPRLPRPRPRPSIHPRP, the “shrunken log2 fold change” value is -0.924.

RRIRERPPRLPRPRPRPFFWPRP: the “shrunken log2 fold change” value came out at 0.138.

As for RRIRTRPPRLPRPRPRPLSWPRP, the “shrunken log2 fold change” value worked out at 0.0654.

For the sequence RRIRIRPPRLPRPRPRPDHSPRP, the “shrunken log2 fold change” value is -0.152.

Consider RRIRCRPPRLPRPRPRPGWPPRP, for which the “shrunken log2 fold change” value amounted to 0.63.

As for RRIRWRPPRLPRPRPRPMLCPRP, the “shrunken log2 fold change” value is 0.216.

Consider RRIRYRPPRLPRPRPRPAEWPRP, for which the “shrunken log2 fold change” value is 0.00902.

For RRIRQRPPRLPRPRPRPKMSPRP, the “shrunken log2 fold change” value is -0.101.

As to RRIRWRPPRLPRPRPRPCDDPRP, the “shrunken log2 fold change” value was -0.00725.

In the case of RRIRSRPPRLPRPRPRPAMNPRP, the “shrunken log2 fold change” value was -0.66.

In the case of RRIRTRPPRLPRPRPRPITPPRP, the “shrunken log2 fold change” value was -0.237.

For the sequence RRIRQRPPRLPRPRPRPANMPRP, the “shrunken log2 fold change” value was -0.242.

As to RRIRQRPPRLPRPRPRPNNSPRP, the “shrunken log2 fold change” value was -0.904.

With RRIRRRPPRLPRPRPRPVNPPRP, the “shrunken log2 fold change” value came to 0.391.

In the case of RRIRGRPPRLPRPRPRPAWYPRP, the “shrunken log2 fold change” value turned out to be 0.405.

Consider RRIRDRPPRLPRPRPRPNAIPRP, for which the “shrunken log2 fold change” value was 0.13.

Regarding RRIRCRPPRLPRPRPRPWVEPRP, the “shrunken log2 fold change” value was -0.689.

For RRIRDRPPRLPRPRPRPTDGPRP, the “shrunken log2 fold change” value was -0.107.

For the sequence RRIRHRPPRLPRPRPRPSQIPRP, the “shrunken log2 fold change” value was -0.0599.

Turning to RRIRIRPPRLPRPRPRPKYDPRP, the “shrunken log2 fold change” value is -0.51.

With RRIRKRPPRLPRPRPRPAVIPRP, the “shrunken log2 fold change” value was 0.076.

RRIRFRPPRLPRPRPRPLMSPRP: the “shrunken log2 fold change” value was -0.0355.

With RRIRFRPPRLPRPRPRPCQGPRP, the “shrunken log2 fold change” value is -0.198.

Turning to RRIRNRPPRLPRPRPRPPSEPRP, the “shrunken log2 fold change” value was -0.147.

For the sequence RRIRYRPPRLPRPRPRPLWGPRP, the “shrunken log2 fold change” value was -0.203.

On to RRIRHRPPRLPRPRPRPTNYPRP, for which the “shrunken log2 fold change” value was -0.2.

On to RRIRQRPPRLPRPRPRPYQGPRP, for which the “shrunken log2 fold change” value stood at 0.00707.

Regarding RRIRDRPPRLPRPRPRPDHFPRP, the “shrunken log2 fold change” value is -0.0133.

With RRIRCRPPRLPRPRPRPMQKPRP, the “shrunken log2 fold change” value was determined as 0.0364.

For RRIRPRPPRLPRPRPRPAAPPRP, the “shrunken log2 fold change” value was 0.467.

With RRIRSRPPRLPRPRPRPLEPPRP, the “shrunken log2 fold change” value was -0.132.

For RRIRGRPPRLPRPRPRPEYWPRP, the “shrunken log2 fold change” value stood at 1.03.

As for RRIRERPPRLPRPRPRPLASPRP, the “shrunken log2 fold change” value was 0.16.

For RRIRQRPPRLPRPRPRPQDKPRP, the “shrunken log2 fold change” value is -0.802.

On to RRIRVRPPRLPRPRPRPKRGPRP, for which the “shrunken log2 fold change” value turned out to be 0.054.

In the case of RRIRFRPPRLPRPRPRPGCYPRP, the “shrunken log2 fold change” value was -0.238.

RRIRDRPPRLPRPRPRPASIPRP: the “shrunken log2 fold change” value was 0.0781.

For the sequence RRIRTRPPRLPRPRPRPWEGPRP, the “shrunken log2 fold change” value stood at 0.0154.

Values taken from the supplement of paper PMC9112550, “Optimization of the antimicrobial peptide Bac7 by deep mutational scanning” (BMC Biology, 2022).
